The source of these data is paper PMC4049585, “Identification and Characterization of a Ginsenoside-Transforming β-Glucosidase from Pseudonocardia sp. Gsoil 1536 and Its Application for Enhanced Production of Minor Ginsenoside Rg2(S)” (PLoS ONE, 2014).

For data set [1], the system named is T1, O=[N+]([O-])c1ccc(O[C@@H]2O[C@H](CO)[C@@H](O)[C@H](O)[C@H]2O)cc1.
T1 construct: 743 residues, 78,975 Da predicted; GST fusion (pGEX 4T-1) from E. coli BL21(DE3), 105 kDa with GST; forward primer encodes IDPVDLTL after GS
Put plainly: purified protein. It counts as biochemical, Pseudonocardia sp. Gsoil 1536. The settings on record: pNPG 1-20 mM, standard assay 50 mM sodium phosphate pH 7.0, 37°C.

The test system of data set [2] is T2, CC(C)=CCC[C@](C)(O[C@@H]1O[C@H](CO)[C@@H](O)[C@H](O)[C@H]1O)[C@H]1CC[C@]2(C)[C@@H]1[C@H](O)C[C@@H]1[C@@]3(C)CC[C@H](O)C(C)(C)[C@@H]3[C@@H](O[C@@H]3O[C@H](CO)[C@@H](O)[C@H](O)[C@H]3O[C@@H]3O[C@@H](C)[C@H](O)[C@@H](O)[C@H]3O)C[C@]12C.
T2 construct: 743 residues, 78,975 Da predicted; GST fusion (pGEX 4T-1) from E. coli BL21(DE3), 105 kDa with GST; forward primer encodes IDPVDLTL after GS
As to the kind of experiment: initial velocity, Re conversion, Cleland kinetics program. Conditions: Re 0.2-5.0 mM; Re substrate lot purity 87.6%; temperature and buffer of kinetics not given. It counts as biochemical, Pseudonocardia sp. Gsoil 1536. From the text:
initial velocity, Re conversion, Cleland kinetics program on BglPC28

The term Km denotes the substrate concentration at which the rate is half of its maximum. Usually Vmax stands for the top rate of the reaction or transport when substrate is in excess. The term kcat denotes the maximal rate divided by the concentration of active sites. The term kcat/Km denotes the turnover number divided by the Michaelis constant.

Consider BglPC28 (Pseudonocardia sp. Gsoil1536), for which, in data set [1], the Km worked out at 6.36 ± 1.10 mM, the Vmax is 40 µmol/min/mg, the kcat was determined as 52.7 ± 3.4 s⁻¹ and the kcat/Km amounted to 8630 ± 2020 M⁻¹ s⁻¹. In data set [2], the Km came to 1.42 ± 0.13 mM, the Vmax worked out at 5.62 µmol/min/mg, the kcat was found to be 7.4 ± 0.28 s⁻¹ and the kcat/Km amounted to 5280 ± 690 M⁻¹ s⁻¹.
